According to US20040072368A1, “Lipoprotein receptor” (priority 2002, published 2004):

Key:
[1] = target: β-subunit of ATP synthase (F1 fraction) exposed on submitochondrial particles; assay: competition with 5 µg/ml 125I-labeled HDL3 on submitochondrial particles, 2 h at 4 °C
[2] = target: β-subunit of ATP synthase (F1 fraction) exposed on submitochondrial particles; assay: binding of 5 µg/ml 125I-labeled HDL3 to submitochondrial particles, 2 h at 4 °C, no competitor; settings: scale: ng HDL3 protein bound per mg of mitochondrial proteins
[3] = target: total solubilised porcine liver plasma membrane proteins; assay: SPR (Biacore 3000, B1 chip), apoA-I immobilised by amine coupling, solubilised membrane proteins injected
[4] = target: porcine liver plasma membrane proteins eluted from apoA-I affinity chromatography; assay: SPR (Biacore), 1.5 µg of proteins injected on the apoA-I sensor chip

| IC50 (read off the curve) [1] [nM] | 100% specific binding [2] | Kd [3] [nM] | relative increase of binding against crude solubilised homogenate [4] [fold] | Substance |
| --- | --- | --- | --- | --- |
| 800 | 2050 | – | – | HDL3 (from UniProt P02647 19-267) |
| – | – | 1 | 4 | lipid free-apolipoprotein A-I (free-apoA-I) (from UniProt P02647 25-267) (ligand) |
